Assay results reported in paper PMC11127010 (Proceedings of the National Academy of Sciences of the …, 2024).
Changes are numbered by the printed parent chain. Names may count otherwise.

B1: hSTIM1-WT EF-SAM domain (aa58 to 201) (domain or fragment)
chain: SEDEKLSFEAVRNIHKLMDDDANGDVDVEESDEFLREDLNYHDPTVKHSTFHGEDKLISVEDLWKAWKSSEVYNWTVDEVVQWLITYVELPQYEETFRKLQLSGHAMPRLAVTNTTMTGTVLKMTDRSHRQKLQLKALDTVLFG
B2: hSTIM1 EF-SAM domain (aa58 to 201) α9-mutant (V178A-L179A) (domain or fragment)
chain: B1 chain with V121A, L122A

Biological target: the molecule itself
Test: SEC-MALS

Protein | stoichiometry N
B1 | ≥ 2
B2 | ≥ 2
